Experimental data reported in patent CN117677637A (PETEMEDI LTD, dated 2024).

B1: PMX001 (antibody, V domains shown)
VH: EVQLVESGGDLVKPGGSLRLSCVASGFTFSSYHMSWVRQAPGKGLQWVAYINSGGSSTTYADAVKGRFTISRDNAKKTLYLQMNSLRAEDTAVYYCSTFDYWGQGTLVTVSS
VL: SYVLTQLPSRNVTLKQPAHITCGGDNIGSKSVHWYQQKLGQAPVLIIYYDTRRPTGIPERFSGANSGNTATLTISGALAEDEADYYCQVWDSSGNVFGGGTHLTVL
notes: Fully canine mAb; also called PMX001 mAb
B2: PMX005 (antibody, V domains shown)
VH: EVQLVESGGDLVKPGGSLRLSCVASGFTFSRYHMSWVRQAPGKGLQWVAYINSGGSDSDYADAVKGRFTISRDNAKNTLYLQMNSLRAEDTAVYYCTSLDYWGQGTLVTVSS
VL: SYVLTQLPSKNVTLKQPAHITCGGDNIGSKSVHWYQQKLGQAPVLIIYYDSSRPTGIPERFSGANSGNTATLTISGALAEDEADYYCQVWDRSGNVFGGGTHLTVL
notes: Fully canine mAb; also called PMX005 mAb
B3: PMX004 (antibody, V domains shown)
VH: EVQLVESGGELVKPGGSLRVSCVASGITFSRYHMSWVRQAPGKGLQWVAFINTDRSSPKYADSVKGRFTISRDNAKNTLYLQMNSLRAEDTAIYYCTSFDYWGQGTLVTVSS
VL: SYVLTQLPSKNVTLKQPAHITCGGDNIGSKSVHWYQQKLGQAPVLIIYYDSSRPTGIPERFSGANSGNTATLTISGALAEDEADYYCQVWDSSANVFGGGTHLTVL
notes: Fully canine mAb; also called PMX004 mAb
B4: PMX010 (antibody, V domains shown)
VH: EVQLVESGGDLVKPGGSLRLSCVASGITFSRYHMSWVRQAPGKGLQWVAYINSGGSSTSYPDAVKGRFTISRDNAKNTLYLQMDSLRAEDTALYYCTTFDYWGQGTLVTVSS
VL: SYVLTQLPSKSVTLKQPAHITCGGDNIGSKSVHWYQQKLGQAPVLIIYYDSRRPTGIPERFSGANSGNTATLTISGALAEDEADYYCQVWDSSANVFGGGTHLTVL
notes: PMX003 heavy chain; Constant regions not restated (PMX003: dog IGGB / dog IGLC5); also called PMX010 mAb; SVT
B5: PMX011 (antibody, V domains shown)
VH: EVQLVESGGDLVKPGGSLRLSCVASGITFSRYHMSWVRQAPGKGLQWVAYINSGGSSTSYPDAVKGRFTISRDNAKNTLYLQMDSLRAEDTALYYCTTFDYWGQGTLVTVSS
VL: SYVLTQLPSKTVTLKQPAHITCGGDNIGSKSVHWYQQKLGQAPVLIIYYDSRRPTGIPERFSGANSGNTATLTISGALAEDEADYYCQVWDSSANVFGGGTHLTVL
notes: PMX003 heavy chain; Constant regions not restated (PMX003: dog IGGB / dog IGLC5); also called PMX011 mAb; TVT
B6: PMX067 (antibody, V domains shown)
VH: EIQLVESGGDLVKPGGSLRLSCVASGFTFSRYHMSWVRQAPGKGLQWVAYINTGGSNTNYADAVKGRFTISRDNAKNTLYLQMNSLRAEDTAVYYCTTLDSWGQGTLVTVSS
VL: SYVLTQLPFKNVTLKQPAHITCGGDNIGSKSVHWYQQKLGQAPVLIIYYDSRRPTGIPERFSGANSGNTATLTISGALAEDEADYYCQVWDSSVNVFGGGTHLTVL
notes: also called PMX0067
B7: PMX070 (antibody, V domains shown)
VH: EMQLVESGGDLVKPGGSLRLSCVASGFTFSRYHMSWVRQAPGKGLQWVAYINSGGSPTNYADAVKGRFTISRDNAKNTLYLQMNSLRAEDTAVYYCTTYDQWGQGTLVTVSS
VL: SYVLTQLPSKSVTLKQPAHITCGGDNIGSKSVHWYQQKLGQAPVLIIYYDSSRPTGIPERFSGANSGNTATLTISGALAEDEADYYCQVWDTSANVFGGGTHLTVL
B8: PMX072 (antibody, V domains shown)
VH: EVQLVESGGDLVKPGGSLRLSCVASGFTFSRYHMSWVRQAPGKGLQWVAFINTGRSSTNYADAVAGRFTISRDNAKNTLYLQMNSLRAEDTAVYYCSTLDYWGQGTLVTVSS
VL: SYVLTQLPSKNVTLKQPAHITCGGDNIGSKSVHWYQQKLGQAPVLIIYYDSSRPTGIPERFSGANSGNTATLTISGALAEDEADYYCQVWDSSANVFGGGTHLTVL
B9: PMX073 (antibody, V domains shown)
VH: EVQLVESGGDLVKPGGSLRLSCVASGFTFSRYYMNWVRQAPGKGLQWVAFITSGGSSTSYGDAVKGRFTISRDNAKNTLYLQMNSLRAEDTAVYYCTSFDYWGQGTLVTVSS
VL: SYVLTQLPSKNVTLKQPAHITCGGDNIGSKSVHWYQQKLGQAPVLIIYYASSRPTGIPERFSGANSGNTATLTISGALAEDEADYYCQVWDSSANVFGGGTHLTVL
B10: PMX077 (antibody, V domains shown)
VH: EVQLVESGGDLVKPGGSLRLSCVASGITFSRYYMNWVRQAPGKGLQWVAYINSGGSPTTYADAVKGRFTISRDNAKNTLYLQMNSLRAEDTAVYYCTSFDYWGQGTLVTVSS
VL: SYVLTQLPSKNVTLKQPAHITCGGDNIGSKSVHWYQQKLGQAPILIIYYDTSRPTGIPERFSGANSGNTATLTISGALAEDEADYYCQVWDSSANVFGGGTHLTVL
B11: PMX079 (antibody, V domains shown)
VH: EVQLVESGGDLVKPGGSLRLSCVASGLTFSRYHMSWVRQAPGKGLQWVAFINSGRSDTTYADAVKGRFTISRDNAKNTLYLQMNSLRAEDTAVYYCTTFDYWGQGTLVTVSS
VL: SYVLTQLPSKNVTLKQPAHITCGGDNIGSKSVHWYQQKLGQAPALIIYYDSSRPTGIPERFSGANSGNTATLTISGALAEDEADYYCQVWDSSANVFGGGTHLTVL
B12: PMX066 (antibody, V domains shown)
VH: AVQLVESGGDLVKPGGSLRLSCVASGITFSRYHMSWVRQAPGKGLQWVAYINSGGSATSYTDAVKGRFSISRDNGKNTLYLQMNSLRVEDSAVYYCTTLDLWGQGTLVTVSS
VL: SYVLTQLPSKNVTLKQPAHITCGGDNIGSKSVHWYQQKLGQAPVLIIYYDSRRPTGIPERFSGANSGNTATLTINGALAEDEADYYCQMWDSSANVFGGGTHLTVL
notes: Canine mAb
B13: PMX069 (antibody, V domains shown)
VH: EMQLVESGGALVKPGGSLRLSCVASGFTFRRYHMSWVRQAPGQGLQWVAYIDSDGSPTSYGDSVKGRFTISRDNAKNTLFLQMNSLRVDDTAVYYCTTLDYWGRGTLVTVSS
VL: SYVLTQVPSKNVTLKQPAHITCGGDNIGGKSVHWYQQKLGQAPLLIIYYDTRRPTGIPERFSGANSGNTATLTISRALAEDEADYYCQVWDSSGNVFGGGTHLTVI
notes: also called PMX0069
B14: PMX071 (antibody, V domains shown)
VH: EVHLVESGGDLVKPGGSLRLSCVASGITFNRYYMNWVRQTPGKGLQWVAYIDSGGSPTTYADAVKGRFTISRDNAKNTLYLQMNSLRAEDTAVYYCTSFDYWGQGTLVTVSS
VL: SYVLTQLPSKNVTLKQPAHITCGGDNIGSKSVHWYQQKLGQAPILIIYYDTSRPTGIPERFSGANSGNTATLTISGALAEDEADYYCQVWDSSANVFGGGTHLTVL
B15: PMX074 (antibody, V domains shown)
VH: EVQLVESGGDLVKPGGSLRLSCVASGFTFSRYYMTWVRQAPGKGLQWVAYINSDRRSTTYADAVKGRFTISRDNAKNTLYLQMNSLRAEDTAVYYCTTLEYWGQGTLVTVSS
VL: SYVLTQLPSKNVTLKQPAHITCGGDNIGSKSVHWYQQKLGQAPVLIIYYDSRRPTGIPERFSGANSGNTATLTINGALAEDEADYYCQVWDSSANVFGGGTHLTVL
B16: PMX075 (antibody, V domains shown)
VH: EVQLVESGGDLVKPGGSLRLSCVASGITFSRYHMSWVRQAPGKGLQWVAFINTGRSSTNYADAVAGRFTISRDNAKNTLYLQMNGLTVEDTAVYYCSTLDYWGQGTLVTVSS
VL: SYVLTQLPSKSVTLKQPAHITCGGDNIGSKSVHWYQQKLGQAPILIIYYDNNRPTGIPERFSGANSGNTATLTISGALAEDEADYYCHVWDSSVNVFGGGTHLTVL
B17: PMX076 (antibody, V domains shown)
VH: EVQLVESGGDLVKPGGSLRLSCVASGITFSRYYMNWVRQAPGKGLQWVAYIDSGGSPTTYADAVKGRFTISRDNAKKALYLQMNSLRAEDTAVYYCTSFDYWGQGTLVTVSS
VL: SYVLTQLPSKNVTLKQPAHITCGGDNIGSKSVHWYQQKLGQAPVLIIYYDSSRPTGIPERFSGANSGNTATLTISGALAEDEADYFCQVWDSSANVFGGGTHLTVL
B18: PMX078 (antibody, V domains shown)
VH: EVQLVESGGDLVKPGGSLRLSCVASGLTFSRYHMSWIRQAPGKGLQWVAYISSGGSSTNYAGSVKGRFTVSRDNAKNTLYLQMNSLRAEDTAVYYCTSLDYWGQGTLVTVSS
VL: SYVLTQLPSKNVTLKQPAHITCGGDNIGSKSVHWYQQKLGQAPVLIIYYDSRRPTGIPERFSGANSGNTATLTISGALAEDEADYYCQVWDSSDNVFGGGTHLTVL
B19: PMX080 (antibody, V domains shown)
VH: EVQLVESGGDLVKPGGSLRLSCVASGLTFSRYYMNWVRQAPGKGLQWVAYIDSGGSPTNYADAVKGRFTISRDNAKNTLYLQMNSLRAEDTAVYYCSSFDYWGQGTLVTVSS
VL: SYVVTQLPSNTVTLKQPAHITCGGDNIGSKSVHWYQQKLGQAPVLIIYYDSRRPTGIPERFSGANSGNTATLTISGALAEDEADYYCQVWDSSANVFGGGTHLTVL
B20: PMX081 (antibody, V domains shown)
VH: EVQLVQSGGDLVKPGGSLRLSCVASGYTFTRYHMSWVRQAPGKGLQWVAFINSDGTGITYGDAVKGRFTISRDNAKNTLYLQMNSLRAEDTAIYYCTTFDSWGQGTLVTVSS
VL: SYVLTQLPSKNVTLKQPAHITCGGDNIGSKSVHWYQQKLGQAPILIIYYDSRRPTGIPERFSGANSGNTATLTISGALAEDEADYYCQVWDSSGNVFGGGTHLTVL

Molecular target: T1, 犬CD20 (canine CD20, B淋巴细胞抗原CD20, full length, wild type) (canine (dog), UniProt Q3C2E2 1-297)
T1 construct: Stably expressed from full-length cDNA on MDCK II (or HEK293) cells for flow cytometry and ADCC; naturally expressed on CLBL-1 canine lymphoma cells in the CDC assay; also called cCD20; MS4A1
T1 chain: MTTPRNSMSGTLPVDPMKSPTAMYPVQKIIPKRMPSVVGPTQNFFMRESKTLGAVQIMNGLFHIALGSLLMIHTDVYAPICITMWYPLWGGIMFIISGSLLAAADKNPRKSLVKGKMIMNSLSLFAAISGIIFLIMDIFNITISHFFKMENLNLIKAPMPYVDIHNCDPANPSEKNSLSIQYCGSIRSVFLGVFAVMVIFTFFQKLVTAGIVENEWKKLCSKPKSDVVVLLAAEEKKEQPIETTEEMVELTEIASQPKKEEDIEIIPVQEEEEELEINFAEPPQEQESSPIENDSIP
Assay: flow cytometry, 10 ug/ml antibody on MDCK II cells expressing canine CD20 (Fig 3A)
B1: binds. B2: binds. B3: binds.

Molecular target: T1, 犬CD20 (canine CD20, B淋巴细胞抗原CD20, full …)
Assay: flow cytometry, 10 ug/ml antibody on MDCK II cells expressing canine CD20 (Fig 3B)
B4: binds. B5: binds.

Molecular target: T1, 犬CD20 (canine CD20, B淋巴细胞抗原CD20, full …)
Assay: flow cytometry, 10 ug/ml antibody on MDCK II cells expressing canine CD20 (Fig 3C)
B6: binds. B7: binds. B8: binds. B9: binds. B10: binds. B11: binds. B12: binds. B13: binds. B14: binds. B15: binds. B16: binds. B17: binds. B18: binds. B19: binds. B20: binds.
